The test addresses S. cerevisiae translation elongation factor 1A (eEF1A), TEF1-encoded, purified from a ΔEFM4 strain (S. cerevisiae) (UniProt P02994).
UniProt P02994, sequence (P02994 whole entry, stated change not applied): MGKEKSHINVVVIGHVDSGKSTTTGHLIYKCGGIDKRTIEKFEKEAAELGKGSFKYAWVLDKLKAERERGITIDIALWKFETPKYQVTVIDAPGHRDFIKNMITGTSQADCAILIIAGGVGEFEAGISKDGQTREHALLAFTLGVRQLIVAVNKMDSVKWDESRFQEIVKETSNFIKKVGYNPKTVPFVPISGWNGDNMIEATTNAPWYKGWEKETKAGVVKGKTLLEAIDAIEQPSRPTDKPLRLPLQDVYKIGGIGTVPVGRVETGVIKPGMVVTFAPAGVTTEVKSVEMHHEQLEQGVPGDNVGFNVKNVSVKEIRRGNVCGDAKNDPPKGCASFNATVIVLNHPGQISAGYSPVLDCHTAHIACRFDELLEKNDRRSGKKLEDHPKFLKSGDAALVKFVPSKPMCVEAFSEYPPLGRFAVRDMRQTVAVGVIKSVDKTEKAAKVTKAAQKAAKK

B1: Efm4 F210A/F212A double mutant (enzyme)
chain: FRRNPQDTGDCWFSDSDAEQKMIDFLVDNIGAYRISENASVVDLGTGNGHMLFELHQTEFQGKLVGIDYSEESVKLASNIAEATGVDNFISFQQADIFSGDWKPGKYDIVLDKGTLDAISLSGMKINGKLDVVDVYAGVVERILKKDGIFLITSCNFTQDELVKIIETDNLKMWKTIKYPVAQAGGVQGATICSVAFVKQN
Regarding B1, the in vitro methylation of eEF1A K316 (Efm4 3 μM, eEF1A 2 μM, AdoMet, 30 min, 30 °C; LC-MS/MS) was less than 20%.

For the origin of these results see article PMC10844748.
